Measurements published in patent US20190367612A1 (Daiichi Sankyo, published 2019).

Columns and labels:
human GPRC5D [1] = target: T1, human GPRC5D (human, UniProt Q9NZD1 1-345); experiment: flow cytometry on KMS-34 cells (endogenous human GPRC5D), anti-FLAG antibody and Alexa 488 anti-mouse IgG detection
T1 construct: whole, on cells; also called hGPRC5D; G-protein coupled receptor family C group 5 member D
Protocol: The KMS-34 cells were recovered by centrifugation, washed twice with a FACS buffer (PBS containing 0.5% BSA and 2 mM EDTA, pH 7.4), and then suspended in the same solution as above. The C2037, C3048, C3015 or C3022 scFv was added to the obtained cell suspension, and the mixture was left standing at 4° C. for 2 hours. After washing twice with a FACS buffer, the cells were suspended by the addition of an anti-FLAG antibody (Sigma-Aldrich Corp.), and the mixture was further left standing at 4° C. for 1 hour. After washing twice with a FACS buffer, the cells were suspended by the addition of Alexa 488-labeled anti-mouse IgG antibody (Jackson ImmunoResearch Laboratories, Inc.), and the mixture was further left standing at 4° C. for 1 hour. After washing twice with a FACS buffer, the cells were fixed in 1% PFA (prepared from a 32% paraformaldehyde solution (Electron Microscopy Sciences)), followed by detection using a flow cytometer (FACSCanto™ II; Becton, Dickinson and Company). The data was analyzed using Flowjo (Tree Star, Inc.).

[2] = target: T2, human GPRC5D amino-terminal peptide MYKDCIESTGDYFLLCDAEGPWGIILE-K(Biotin)-NH2, having an intramolecular … (human, C-terminal lysine carrying biotin, C-terminal amide; intramolecularly formed disulfide bond); experiment: SPR (Biacore T200), kinetic analysis: biotinylated amino-terminal peptide of human GPRC5D on Sensor Chip CAP, scFv as analyte
T2 construct: Peptide Institute synthetic peptide; also called amino-terminal peptide of biotinylated human GPRC5D (disulfide bond present)
T2 peptide: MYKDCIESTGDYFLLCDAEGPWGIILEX
Protocol: The binding activity of the anti-GPRC5D antibodies against the amino-terminal peptide of human GPRC5D was tested by SPR using Biacore T200. The amino-terminal peptide of biotinylated human GPRC5D diluted to 2 nM with HBS-EP+ (manufactured by GE Healthcare Bio-Sciences Corp.) was immobilized on Sensor Chip CAP (manufactured by GE Healthcare Bio-Sciences Corp.) by contact at a rate of 10 μL/min for 180 seconds. Then, Kd was calculated by kinetic analysis using a plurality of concentrations of each scFv diluted with HBS-EP+ as analytes.

[3] = target: T3, amino-terminal peptide of cynomolgus monkey GPRC5D …(Biotin)-NH2 (cynomolgus monkey, C-terminal lysine carrying biotin, C-terminal amide); experiment: ELISA, chemiluminescence: biotinylated amino-terminal peptide of cynomolgus monkey GPRC5D on NeutrAvidin, scFv detected with HRP anti-FLAG antibody
T3 construct: also called amino-terminal peptide of biotinylated cynomolgus monkey GPRC5D
T3 peptide: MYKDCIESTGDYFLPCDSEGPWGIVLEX
Protocol: NeutrAvidin diluted to 1 μg/mL with PBS was added in an amount of 50 μL/well to 96-well Maxi-sorp plate (Black, Nunc/Thermo Fisher Scientific Inc.), and the plate was left standing overnight at 4° C. for immobilization. After washing three times with an ELISA buffer, the amino-terminal peptide of the biotinylated human or cynomolgus monkey GPRC5D (used in Example 10)-1) diluted to 1 μg/mL with PBS was added thereto, and the plate was shaken at room temperature for 1 hour. After washing three times with an ELISA buffer, the plate was blocked with Blocker Casein and washed three times with an ELISA buffer. Then, the C2037, C3048, C3015, or C3022 scFv was added to the plate and reacted at room temperature for 2 hours. After washing three times with an ELISA buffer, a horseradish peroxidase (HRP)-labeled anti-FLAG antibody diluted 5000-fold with an ELISA buffer was added thereto in an amount of 50 μL/well and reacted at room temperature for 1 hour. After washing five times with an ELISA buffer, SuperSignal Pico ELISA Chemiluminescent substrate was added. After 10 minutes, the chemiluminescence was measured using a plate reader.

human GPRC5D [4] = target: T1, human GPRC5D; experiment: flow cytometry on KHM-1B cells (human GPRC5D), PE anti-human IgG Fc detection, rMFI = MFI minus isotype control
Protocol: Human multiple myeloma cell line KHM-1B cells expressing GPRC5D were adjusted to a concentration of 2×10⁶ cells/mL with PBS containing 5% FBS, inoculated in an amount of 100 μL/well to a 96-well U-bottomed microplate, and centrifuged to remove the supernatant. The culture supernatant of each human anti-GPRC5D antibody (full-length IgG form containing C2037, C3048, C3015, or C3022) obtained in Example 10)-5 or Human IgG isotype control antibody (Calbiochem/Merck Millipore Corp.) adjusted to 14 ng/mL to 30 μg/mL was added thereto in an amount of 100 μL/well, and the plate was left standing at 4° C. for 1 hour. The cells were washed twice with PBS containing 5% FBS. Then, R-Phycoerythrin AffiniPure F(ab′)2 Fragment Goat Anti-Human IgG, Fcγ Fragment Specific (Jackson ImmunoResearch Laboratories, Inc.) diluted 100-fold with PBS containing 5% FBS was added thereto in an amount of 100 μL/well, and the plate was left standing at 4° C. for 1 hour. The cells were washed twice with PBS containing 5% FBS and then resuspended in PBS containing 5% FBS, followed by detection using a flow cytometer (FACSCanto™ II; Becton, Dickinson and Company). The data was analyzed using Flowjo (Tree Star, Inc.). The PE fluorescence intensity of the cell fraction was plotted to a histogram, and the mean fluorescence intensity (MFI) was calculated. The MFI value of the control antibody was subtracted from the MFI value of the GPRC5D antibody to calculate a relative value of MFI (rMFI).

[5] = target: T2, human GPRC5D amino-terminal peptide …; experiment: ELISA, chemiluminescence: biotinylated amino-terminal peptide of human GPRC5D on NeutrAvidin, culture supernatant of IgG-expressing cells (one concentration, not given), HRP anti-human Fab detection
Protocol: (§1) NeutrAvidin diluted to 1 μg/mL with PBS was added in an amount of 50 μL/well to 96-well Maxi-sorp plate, and the plate was left standing overnight at 4° C. for immobilization. After washing three times with an ELISA buffer, the amino-terminal peptide of the biotinylated human or cynomolgus monkey GPRC5D (used in Example 10)-1) diluted to 1 μg/mL with PBS was added thereto, and the plate was shaken at room temperature for 1 hour. After washing three times with an ELISA buffer, the plate was blocked with Blocker Casein and washed three times with an ELISA buffer. Then, the culture solution of the IgG-expressing FreeStyle 293F cells was added to the plate and reacted at room temperature for 2 hours. After washing three times with an ELISA buffer, a horseradish peroxidase (HRP)-labeled anti-human Fab antibody (Jackson ImmunoResearch Laboratories, Inc.) diluted 2500-fold with ELISA buffer was added thereto in an amount of 50 μL/well and reacted at room temperature for 1 hour. After washing five times with an ELISA buffer, SuperSignal Pico ELISA Chemiluminescent substrate was added. After 10 minutes, the chemiluminescence was measured using a plate reader.

[6] = target: T3, amino-terminal peptide of cynomolgus …; experiment: ELISA, chemiluminescence: biotinylated amino-terminal peptide of cynomolgus monkey GPRC5D on NeutrAvidin, culture supernatant of IgG-expressing cells (one concentration, not given), HRP anti-human Fab detection
Protocol: as §1

mouse GPRC5D = target: T4, mouse GPRC5D (mouse, UniProt Q9JIL6 1-344); experiment: flow cytometry, in the same way as in Example 5)-2
T4 construct: whole, on cells
T4 sequence (looked up): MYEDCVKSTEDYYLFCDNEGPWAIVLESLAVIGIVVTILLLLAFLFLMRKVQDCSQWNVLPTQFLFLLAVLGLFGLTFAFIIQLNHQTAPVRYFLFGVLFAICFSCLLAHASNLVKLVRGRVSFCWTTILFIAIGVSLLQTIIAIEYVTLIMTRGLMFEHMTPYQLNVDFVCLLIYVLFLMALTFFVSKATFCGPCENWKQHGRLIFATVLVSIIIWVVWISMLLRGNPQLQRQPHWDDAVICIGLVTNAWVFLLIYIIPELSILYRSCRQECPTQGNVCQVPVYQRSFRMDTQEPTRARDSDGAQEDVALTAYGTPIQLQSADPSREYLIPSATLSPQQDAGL

B1: human antibody C3022 scFv (scFv)
scFv: QVQLVQSGAEVKKPGASVKVSCKASGYTFTGYYMHWVRQAPGQGLEWMGRINPNSGGTNYAQKFQGRVTMTRDTSISTAYMELSGLRSDDTAVYYCASGSVRHPWGQGTLVTVSSGGGGSGGGGSGGGGSQPVLTQPPSASGTPGQRVTISCSGSRSNIGGNIVSWYQQFPGTAPRLLTYADNQRPSGVPDRFSGSKSGTSASLAISGLQSEDEADYYCAAWDDSLNGVVFGGGTKLTVL
notes: also called C3022 antibody scFv; not shown: FLAG and His tags at the carboxyl terminus
- binding result (human GPRC5D [1]): binds
- Kd [2]: 95 nM
- binding result [3]: binds

B2: IgG form of the human antibody C3048 (antibody, V domains shown)
VH: QVQLVQSGAEVKKPGSSVKVSCKASGGTFSRYAISWVRQAPGQGLEWMGGIIPIFGTANYAQKFQGRVTITADQSTRTAYMDLGRLRSEDTAVYYCALEGFRDSLKRNPFDIWGQGTMVTVSS
VL: QSVVTQPPSVSAAPGQKVTISCSGGTTNIGSNYVSWYQQLPGTAPKFLMYENNKRPSGIPDRFSGSKSGTSATLAITGLQTGDEATYYCSTWDSSLNTGLFGGGTKLTVLG
notes: Human IgG1; also called C3048 IgG form; full-length IgG form containing C3048
- EC50 (read off the curve) (human GPRC5D [4]): 7 to 8 nM
- binding result [5]: binds
- binding result [6]: binds

B3: human chimeric 7B4 (antibody, human IgG1, V domains shown)
VH: EIHLQESGPGLVKPSQSLSLTCSVTGYTITSGYDWSWIRKFPGNKMEWMAYMSYRGSTNYNPSLKSRISITRDTSKNQFFLQLNSVTTEDTATYYCALTRTYWYNYYYVLDAWGQGASVTVSS
VL: DIQMTQSPSFLSASVGERVTLSCKASQNINKYLDWYQQKLGEPPKLLIYNTNNLHTGIPSRFSGSGSGTDYTLTISGLQPEDVATYFCLQRNSWYTFGAGTKLELKR
notes: Human IgG1 / kappa constant regions
- binding result (mouse GPRC5D): no binding

B4: human chimeric 2A4 (antibody, human IgG1, V domains shown)
VH: QVQLQQSGAELAKPGTSVKLSCKASGYTFTSYYIYWVKQRPGQGLEWIGYVYPGYGGTYYSDKFKGKATFTADTSSSTAYMLLGSLTPEDSAYYFCARRKGIIRGPGYFDYWGQGVMVTVSS
VL: DIQMTQSPASLSASLGETVSIECLASEGISNSLAWYQQKPGKSPQLLIYGASSLQDGVPSRFSGSGSGTQYSLKISGMQPEDEGLYYCQQGYKYPPTFGGGTKLELKR
notes: as for B3
- binding result (mouse GPRC5D): no binding

B5: IgG form of the human antibody C3022 (antibody, V domains shown)
VH: QVQLVQSGAEVKKPGASVKVSCKASGYTFTGYYMHWVRQAPGQGLEWMGRINPNSGGTNYAQKFQGRVTMTRDTSISTAYMELSGLRSDDTAVYYCASGSVRHPWGQGTLVTVSS
VL: QPVLTQPPSASGTPGQRVTISCSGSRSNIGGNIVSWYQQFPGTAPRLLTYADNQRPSGVPDRFSGSKSGTSASLAISGLQSEDEADYYCAAWDDSLNGVVFGGGTKLTVLG
notes: Human IgG1; also called C3022 IgG form; full-length IgG form containing C3022
- binding result (human GPRC5D [4]): binds
- binding result [5]: binds
- binding result [6]: binds

B6: IgG form of the human antibody C2037 (antibody, V domains shown)
VH: not shown
VL: QPVLTQPPSASGTPGQRVTISCSGSNSNIGSRTVNWYQHLPGTAPRLLIYGNNQWPSGVPDRFSGSKSGSSASLAISGLRSEDEADYYCAAWDDSLSGVVFGGGTKLTVLG
notes: Human IgG1; also called C2037 IgG form; full-length IgG form containing C2037
- EC50 (read off the curve) (human GPRC5D [4]): ~8 nM
- binding result [5]: binds
- binding result [6]: binds
